For orientation: Kd means the concentration at which binding is half-saturated. For orientation: koff means a measure of how fast the partners let go of each other. As a reminder, the kon is the second-order rate constant of association.

Data on twelve molecules can be found in patent US20250179196A1 (Janssen / Centocor, published 2025).

Test [1] deals with T1, Recombinant human IL-23 receptor (IL-23R) extracellular domain (ECD) protein (human, UniProt Q5VWK5 24-355).
T1 construct: also called human IL-23R ECD; hu IL-23R ECD
T1 sequence: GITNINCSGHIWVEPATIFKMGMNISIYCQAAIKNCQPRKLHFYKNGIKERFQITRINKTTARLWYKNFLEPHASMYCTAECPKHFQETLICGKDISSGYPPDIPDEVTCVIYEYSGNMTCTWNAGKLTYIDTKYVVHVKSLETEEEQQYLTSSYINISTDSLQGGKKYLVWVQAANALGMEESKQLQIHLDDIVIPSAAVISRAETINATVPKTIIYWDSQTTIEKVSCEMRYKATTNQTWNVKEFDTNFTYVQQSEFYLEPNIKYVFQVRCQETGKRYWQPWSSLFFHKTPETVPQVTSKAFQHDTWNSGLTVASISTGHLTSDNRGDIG
As to the kind of experiment: SPR Biacore 8K, supernatant, analysis 2. An outline of the steps:
(§1)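 Antibodies (~150 RU) were captured and human or rat IL-23R ECD injected at 0.8–500 nM in 5-fold steps, at 25 °C in HBS-P+ with 100 μg/ml BSA. Association ran 3 min at 50 μL/min, followed by 30 min dissociation. Ka, Kd and KD came from a Langmuir 1:1 fit.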
A general note: SPR reads the build-up and loss of mass on a sensor chip optically.

The target in test [2] is T2, rat IL-23R extracellular domain (ECD) protein (rat).
T2 construct: also called rat IL-23R ECD; F1LX96 amino acids 24-354
T2 chain: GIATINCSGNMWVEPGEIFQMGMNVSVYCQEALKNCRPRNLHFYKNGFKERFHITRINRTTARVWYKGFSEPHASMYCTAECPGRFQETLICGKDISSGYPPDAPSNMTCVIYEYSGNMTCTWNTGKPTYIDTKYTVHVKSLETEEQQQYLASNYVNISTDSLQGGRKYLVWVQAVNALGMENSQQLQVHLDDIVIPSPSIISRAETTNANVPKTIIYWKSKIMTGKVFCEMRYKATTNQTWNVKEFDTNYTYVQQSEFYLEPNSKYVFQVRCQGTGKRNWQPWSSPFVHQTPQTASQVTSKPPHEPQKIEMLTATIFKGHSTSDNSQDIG
As to the kind of experiment: SPR Biacore 8K, supernatant. The procedure, abridged:
as §1

Test [3] concerns the target T1, Recombinant human IL-23 receptor …. Briefly: SPR Biacore 8K, supernatant, analysis 1. An outline of the steps:
as §1

B1: I23RB60 (antibody, mouse IgG2a, kappa, V domains shown)
VH: DVQLQESGPELVKPGDSVKMSCEASGYTFTDYYIDWVKQSHGKSLEWIGYIYPNNGGISFNQKFEGKATLTVDKSSSTAYMELHSLTSEDSAVYYCAREKLRGRDYWGQGTTLTVSS
VL: DIVMTQSTSSLSASLGDRVTISCRASQDIRNNLNWYQQKPDGTVKLLIFYSSRLHSGVPSRFSGSGSGTDYSLTISNLEQEDIATYFCQQGHTLPWTFGAGTKLELKR
notes: mouse immunization; mouse IgG2a/kappa
Turning to B1, in test [1], the Kd came to 0.466 nM, the koff is 0.000169 s⁻¹ and the kon is 362000 M⁻¹ s⁻¹. Further, the binding result in test [2] is “no binding (tested: 500 nM)”. Moreover, in test [3], the Kd was determined as 0.731 nM, the koff was found to be 0.000218 s⁻¹ and the kon came to 298000 M⁻¹ s⁻¹.

B2: I23RB39 (antibody, mouse IgG2a, kappa, V domains shown)
VH: EVQLQQSGPELVKPGAPVKISCKASGYTFTNYYIHWVKQRPGQGLEWIGYIYPGNGGTAYNQKFKDKATLTADNPSSTAYMQLSSLTSEDSAVYFCARSRGGSRNYFDYWGQGTTLTVSS
VL: DIQMTQSHKFMSTSVGDRVSITCKASQDVSTAVAWYQQKPGQSPKLLIYSAFYRYTGVPDRFTGSGSGTDFTFTISSVQAEDLAVYYCQQHYSSPRTFGAGTKLELKR
notes: as for B1
For B2, in test [1], the Kd was 14.9 nM, the koff turned out to be 0.00716 s⁻¹ and the kon was determined as 482000 M⁻¹ s⁻¹. The binding result in test [2] is on record as “no binding (tested: 500 nM)”. In test [3], the Kd amounted to 32 nM, the koff was found to be 0.00739 s⁻¹ and the kon was 231000 M⁻¹ s⁻¹.

B3: I23RB166 (antibody, mouse IgG2a, kappa, V domains shown)
VH: DVQLQESGPGLVKPSQTVSLTCTVTGYSITNGNHWWNWIRQVSGSKLEWIGYIRSSGSTDSNPSLKSRISITRDTSKNQLFLQLNSVTAEDIATYYCARERLRLRWSYFDYWGQGTTLTVSS
VL: DIVMTQSHKFMSTSVGARVSITCKASQDVSTAVAWYQQKPGQSPKLLIYSASYRYTGVPDRFTGSGSGTDFTFTISSVQAEDLAVYYCQQHYSTPRTFGGGTKLEIKR
notes: as for B1
In the case of B3, in test [1], the Kd came to 44.1 nM, the koff came out at 0.00942 s⁻¹ and the kon was 214000 M⁻¹ s⁻¹. In addition, the binding result in test [2] is on record as “no binding (tested: 500 nM)”. Further, in test [3], the Kd was found to be 43.1 nM, the koff was found to be 0.0193 s⁻¹ and the kon amounted to 447000 M⁻¹ s⁻¹.

B4: I23RB56 (antibody, mouse IgG2a, kappa, V domains shown)
VH: EVKLVESGGGLVKPGGSLKLSCAASGFTFSSYAMSWVRQTPEKRLEWVAAINSNDGSTYYPDTVKDRFTISRDNAKNTLYLQMSSLRSEDTALYYCARHFLYFSNFYYFDYWGQGTTLTVSS
VL: DIVMTQSPKFLLVSAGDRVTITCKASQSVSNDVAWYQQKPGQSPKLLIYYASNRYTGVPDRFTGSGYGTVFTFTISTVQAEDLAVYFCQQDYSSPFTFGSGTKLEIKR
notes: as for B1
As to B4, in test [1], the Kd worked out at 25.5 nM, the koff is 0.00898 s⁻¹ and the kon came out at 352000 M⁻¹ s⁻¹. In test [2], the Kd is 715 nM, the koff stood at 0.0642 s⁻¹ and the kon came out at 89700 M⁻¹ s⁻¹. Moreover, in test [3], the Kd worked out at 68.4 nM, the koff worked out at 0.0115 s⁻¹ and the kon was 168000 M⁻¹ s⁻¹.

B5: I23RB36 (antibody, mouse IgG2a, kappa, V domains shown)
VH: QIQLVQSGAELVKPGASVKLSCTTSGFNIKDTYIHWMKQRPEQGLEWIGRIDPANGNTIYASKFQGKATLTTDTSSNTAYMLLSSLTSGDTAVYYCTRGTSWFAYWGQGTTVTVSS
VL: DIVMTQSPKSMSMSVGERVTLSCKASENVGTSVSWFQQKPEQSPKLLIYGASNRYTGVPDRFTGSGSATDFTLTISSVQAEDLADYHCGQSYSYPRTFGGGTKLEIKR
notes: as for B1
Regarding B5, in test [1], the Kd came out at 2.18 nM, the koff came to 0.00129 s⁻¹ and the kon is 592000 M⁻¹ s⁻¹. Also, the binding result in test [2] is on record as “no binding (tested: 500 nM)”. In test [3], the Kd came out at 13.7 nM, the koff stood at 0.00118 s⁻¹ and the kon amounted to 86400 M⁻¹ s⁻¹.

B6: I23RB58 (antibody, mouse IgG2a, kappa, V domains shown)
VH: EVKLVESGGGLVKPGGSLKLSCAASGFSFIIYTMSWVRQTPEKRLEWVAYITSGGGITYYPDSVKGRFTISRDNARNTLYLQMSSLRSEDTAMYYCARHEGDYYDDYYRIGYAMDYWGQGTSVTVSS
VL: DIVMTQTPASLAVSLGQRATISCRASESVDSYGNSFMHWYQQKPGQPPKLLIYRASNLESGIPARFSGSGSRTDFTLTINPVEADDVATYYCQQSNEDPLTFGAGTKLEMKR
notes: as for B1
B6: in test [1], the Kd turned out to be 22.5 nM, the koff turned out to be 0.00523 s⁻¹ and the kon is 233000 M⁻¹ s⁻¹. In test [2], the binding result is listed as “no binding (tested: 500 nM)”. Further, in test [3], the Kd was determined as 16.2 nM, the koff is 0.00532 s⁻¹ and the kon was determined as 328000 M⁻¹ s⁻¹.

B7: I23RB30 (antibody, mouse IgG2a, kappa, V domains shown)
VH: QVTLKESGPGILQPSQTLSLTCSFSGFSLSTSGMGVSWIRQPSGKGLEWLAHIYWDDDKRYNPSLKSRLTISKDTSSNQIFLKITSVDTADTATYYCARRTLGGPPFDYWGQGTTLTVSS
VL: DIVLTQSQRFMSTSVGDRVSITCKASQNIRTAVAWYQQKPGQSPKALIYLPSNRHTGVPDRFTGSGSGTDFTLTISNVQSEDLADYFCLQHWNYPLTFGAGTKLELKR
notes: as for B1
As for B7, in test [1], the Kd is 35.9 nM, the koff was 0.00763 s⁻¹ and the kon was 212000 M⁻¹ s⁻¹. Besides, in test [2], the Kd worked out at 306 nM, the koff amounted to 0.00909 s⁻¹ and the kon came out at 29800 M⁻¹ s⁻¹. Moreover, in test [3], the Kd is 46.2 nM, the koff was 0.0101 s⁻¹ and the kon is 220000 M⁻¹ s⁻¹.

B8: I23RB27 (antibody, mouse IgG2a, kappa, V domains shown)
VH: QVQLKESGPDLVQPSQTLSLTCTVSGFSLTSYGVHWVRQPPGKGLEWVGTLGWDDKKSYNSALKSRLSISRDTSKSQVFLKLSSLQTEDTAMYYCTKEDVSYAMDFWGQGTTLTVSS
VL: DIQMTQSPTSLAVSLGQRATISCRASESVEYYGTSLMHWYQQKPGQPPKLLIYAASNVESGVPARFSGSGSGTDFSLNIHPVEEEDIAMYFCQQGKKVPWTFGAGTKLEMKR
notes: as for B1
For B8, in test [1], the Kd came out at 18.7 nM, the koff is 0.00416 s⁻¹ and the kon is 223000 M⁻¹ s⁻¹. Also, in test [2], the binding result is recorded as “no binding (tested: 500 nM)”. In test [3], the Kd amounted to 11.4 nM, the koff is 0.00372 s⁻¹ and the kon is 325000 M⁻¹ s⁻¹.

B9: I23RB182 (antibody, mouse IgG2a, kappa, V domains shown)
VH: EVQLQQSGPGLVKPSQSLSLTCSVTGYSITSGYFWNWLRQFPGSKLEWMGFIDNDGSNDYNPSLKNRISITRDTSKNQFFLRLNSVTTEDTATYYCARGRLGFFDSWGPGTTLTVSS
VL: DIVMTQSPAIMSASLGEKVTMSCRASSSVNYMYWYQQKSDASPKLWIYYTSNLAPGVPARFSGSGSGNSYSLTISSMEGEDAATYYCQQFTNSPWTFGAGTKLELKR
notes: as for B1
For the molecule B9, in test [1], the Kd came to 43.7 nM, the koff is 0.00394 s⁻¹ and the kon is 90200 M⁻¹ s⁻¹. In test [2], the binding result was “no binding (tested: 500 nM)”. In test [3], the Kd was determined as 49.8 nM, the koff worked out at 0.00194 s⁻¹ and the kon was 38900 M⁻¹ s⁻¹.

B10: I23RB188 (antibody, mouse IgG2a, kappa, V domains shown)
VH: QIQLVQSGPELKKPGETVKISCKASGYTFTNYGMNWVKQAPGKGLKWMGWINTYTGAPTYADDFKGRFAFSLETSASTAYLQINNFKNEDTATYFCARGNGYPYYYGINYWGQGTSVTVSS
VL: DVQMIQSPSSLSASLGERVSLTCRASQEISGNLSWLQQKPDGTIKRLIYAASTLDSGVPKRFSGSRSGSDYSLTISSLESEDFADYYCLQYASYPWTFGAGTRLEIKR
notes: as for B1
In the case of B10, in test [1], the Kd amounted to 18.9 nM, the koff is 0.00151 s⁻¹ and the kon is 79800 M⁻¹ s⁻¹. Also, in test [2], the binding result is “no binding (tested: 500 nM)”. In test [3], the Kd was determined as 13.3 nM, the koff amounted to 0.0013 s⁻¹ and the kon is 98200 M⁻¹ s⁻¹.

B11: I23RB168 (antibody, mouse IgG2a, kappa, V domains shown)
VH: QIQLVQSGPELVKPGASVKMSCKTSGYTFTDYYINWVKQRPGQGLEWIGWIYPAINNTNYNEKFKGKATLTVDTSSRTAYMQLNSLTSEDSAVYFCAISRKPYFDYWGQGTTLTVSS
VL: DIQMTQSSSSFSVSLGDRVTITCKASEDLYNRLAWYQQKPGNAPRLLISGATSLGTGVLSRFSGSGSGKDYTLSITSLQTEDVATYYCQQYWSIPWTFGAGTKLELKR
notes: as for B1
For B11, in test [1], the Kd turned out to be 0.422 nM, the koff amounted to 0.000155 s⁻¹ and the association rate constant (kon) stood at 368000 M⁻¹ s⁻¹. For the same molecule, in test [2], the binding result is recorded as “no binding (tested: 500 nM)”. Also, in test [3], the Kd stood at 0.279 nM, the koff is 0.000118 s⁻¹ and the kon is 424000 M⁻¹ s⁻¹.

B12: I23RB169 (antibody, mouse IgG2a, kappa, V domains shown)
VH: QIQLVQSGPELKKPGETVKISCKASGYTFTTVGMQWVQKMPGKGFKWIGWINTHSGEPKYTDDFKGRFAFSLETSASTAYLQISNLKSEDTATYFCARSSALTGAFAYWGQGTLVTVSS
VL: DIKMTQSPASLAVSLGQRATISCRASKSVSTSDYSYMHWYQQKPGQPPKLLIYLASNLESGVPARFSGSGSGTDFTLNIHPVEEEDAATYYCQHSRELPRTFGAGTKLELKR
notes: as for B1
For the molecule B12, in test [1], the Kd came out at 34.8 nM, the koff worked out at 0.00427 s⁻¹ and the kon was determined as 123000 M⁻¹ s⁻¹. The binding result in test [2] is listed as “no binding (tested: 500 nM)”. For the same molecule, in test [3], the Kd worked out at 91.3 nM, the koff worked out at 0.0116 s⁻¹ and the kon came out at 128000 M⁻¹ s⁻¹.
